US20040141968A1

Assays:
[1] = biological target: recombinant soluble CMV envelope glycoprotein B (human cytomegalovirus) (UniProt P13201); assay: SPR (Biacore); DC-SIGN CRD injected over immobilised CMV gB; from koff/kon
[2] = biological target: recombinant soluble CMV envelope glycoprotein B (human cytomegalovirus) (UniProt P13201); assay: SPR (Biacore); DC-SIGN CRD injected over immobilised CMV gB; Langmuir fit, average

recombinant soluble CRD of DC-SIGN (amino acids 254-404), sequence (Q9NNX6 254-404 limits assumed): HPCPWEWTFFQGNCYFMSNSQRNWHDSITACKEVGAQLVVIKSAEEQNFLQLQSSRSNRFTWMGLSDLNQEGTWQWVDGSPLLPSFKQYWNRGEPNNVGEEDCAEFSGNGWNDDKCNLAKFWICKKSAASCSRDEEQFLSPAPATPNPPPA

For “recombinant soluble CRD of DC-SIGN (amino acids 254-404) (from UniProt Q9NNX6 254-404) (receptor)”, the Kd [1] was 290 nM, the koff [2] was 0.00126 s⁻¹ and the kon [2] was 4400 M⁻¹ s⁻¹.
